Assay results: the supplement of paper PMC7125110
± gives the standard error. For some of these results: Fewer inactive variants are shown than the library holds.

B1: glmS ribozyme (parent)
chain: AUAAAAGCGCCAGAACUACAGAAAUGUAGUUGACGAGGAGGAGGUUUAUCGAAUUUUCGGCGGAUGCCUCCAAA

How the values were obtained:
Settings in all cases: with glucosamine-6-phosphate
[1] = variants of: B1; assay: self-cleavage kobs at 40 uM GlcN6P; higher = faster cleavage; RNA array
Outline: (§1)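 Tiles bearing barcoded ribozyme variants, transcribed in situ by E. coli RNA polymerase on sequenced MiSeq chips, were imaged over ~14 h at 37 °C using a hybridised Cy3 probe. Glucosamine-6-phosphate was supplied at 40 μM to 10 mM in HEPES/KCl/Mg(OAc)2 buffer. kobs came from one- or two-exponential decay fits to normalised per-tile medians, and weighted Michaelis–Menten fits then provided kcat and KM.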

[2] = variants of: B1; assay: self-cleavage kobs at 2500 uM GlcN6P; higher = faster cleavage; RNA array
Outline: as §1

[3] = variants of: B1; assay: self-cleavage kobs at 10000 uM GlcN6P; higher = faster cleavage; RNA array
Outline: as §1

[4] = variants of: B1; assay: kcat; higher = faster cleavage; RNA array
Outline: as §1

[5] = variants of: B1; assay: KM; higher = weaker cofactor use; RNA array
Outline: as §1

[6] = variants of: B1; assay: self-cleavage kobs at 160 uM GlcN6P; higher = faster cleavage; RNA array
Outline: as §1

[7] = variants of: B1; assay: self-cleavage kobs at 640 uM GlcN6P; higher = faster cleavage; RNA array
Outline: as §1

Variant	self-cleavage kobs at 40 uM GlcN6P [1]	self-cleavage kobs at 2500 uM GlcN6P [2]	self-cleavage kobs at 10000 uM GlcN6P [3]	kcat [4]	KM [5]	self-cleavage kobs at 160 uM GlcN6P [6]	self-cleavage kobs at 640 uM GlcN6P [7]
A6C A52U G60U	< 1e-05 s⁻¹	–	–	–	–	–	–
A6G C11G A42U	< 1e-05 s⁻¹	< 1e-05 s⁻¹	< 1e-05 s⁻¹	–	–	–	–
C67U	0.000527 ± 1.7e-05 s⁻¹	0.0117 ± 0.00055 s⁻¹	0.0215 ± 0.00087 s⁻¹	0.0229 ± 0.0033 s⁻¹	1910 ± 390 µM	0.0016 ± 0.00012 s⁻¹	0.00529 ± 0.0002 s⁻¹
C67G	3.28e-05 ± 1e-06 s⁻¹	0.00108 ± 3.9e-05 s⁻¹	0.00145 ± 3.7e-05 s⁻¹	0.00185 ± 0.00017 s⁻¹	2390 ± 300 µM	0.000109 ± 2.8e-06 s⁻¹	0.00046 ± 4e-05 s⁻¹
C67A	0.000434 ± 1.5e-05 s⁻¹	0.0101 ± 0.00044 s⁻¹	0.0155 ± 0.00076 s⁻¹	0.0168 ± 0.0027 s⁻¹	1730 ± 380 µM	0.00132 ± 8.4e-05 s⁻¹	0.004 ± 0.00015 s⁻¹
G63A C68G	–	–	–	1.26e-05 ± 3.4e-06 s⁻¹	–	–	–
G63A C68A	–	–	–	2.09e-05 ± 4.7e-06 s⁻¹	–	–	–
A6C U45C G63A	< 1e-05 s⁻¹	< 1e-05 s⁻¹	–	–	–	–	–
A6C C58G	< 1e-05 s⁻¹	–	< 1e-05 s⁻¹	–	–	–	< 1e-05 s⁻¹
A6C C58U	< 1e-05 s⁻¹	–	< 1e-05 s⁻¹	–	–	< 1e-05 s⁻¹	–
G63U C68G	< 1e-05 s⁻¹	< 1e-05 s⁻¹	–	1.09e-05 ± 2.8e-06 s⁻¹	–	–	–
C67U C70U	–	0.000264 ± 2e-05 s⁻¹	0.000377 ± 3e-05 s⁻¹	0.000418 ± 1.7e-05 s⁻¹	1370 ± 110 µM	4.68e-05 ± 6.2e-06 s⁻¹	0.000132 ± 9.5e-06 s⁻¹
C67U C70A	–	–	–	1.69e-05 ± 4.5e-06 s⁻¹	–	–	–
A6C A15C U54C C71U	< 1e-05 s⁻¹	–	–	–	–	–	–
U65C C68U	–	–	–	2.26e-05 ± 1.2e-06 s⁻¹	558 ± 230 µM	–	–
A6C C50G C61G	0.000119 ± 3.4e-05 s⁻¹	0.000289 ± 0.0001 s⁻¹	0.000343 ± 6.1e-05 s⁻¹	–	–	0.000251 ± 7.8e-05 s⁻¹	0.00102 ± 0.00025 s⁻¹
A6G C58A	< 1e-05 s⁻¹	< 1e-05 s⁻¹	–	–	–	< 1e-05 s⁻¹	< 1e-05 s⁻¹
A6G A39G C68A C70G	< 1e-05 s⁻¹	–	–	–	–	–	–
G66U C71U	3.7e-05 ± 8.7e-06 s⁻¹	0.00174 ± 0.00026 s⁻¹	0.0014 ± 0.00014 s⁻¹	0.00186 ± 0.00045 s⁻¹	2150 ± 760 µM	0.000107 ± 1.4e-05 s⁻¹	0.000471 ± 4.1e-05 s⁻¹
G66U C71A	–	0.000205 ± 2.4e-05 s⁻¹	0.000202 ± 1.9e-05 s⁻¹	0.000234 ± 2.4e-05 s⁻¹	1020 ± 250 µM	3.4e-05 ± 1e-05 s⁻¹	8.54e-05 ± 8.7e-06 s⁻¹

Variant	self-cleavage kobs at 40 uM GlcN6P [1]	self-cleavage kobs at 2500 uM GlcN6P [2]	self-cleavage kobs at 10000 uM GlcN6P [3]	kcat [4]	KM [5]	self-cleavage kobs at 160 uM GlcN6P [6]	self-cleavage kobs at 640 uM GlcN6P [7]
A6C U31A	< 1e-05 s⁻¹	–	3.99e-05 ± 1.3e-05 s⁻¹	–	–	–	< 1e-05 s⁻¹
A64G U65G G66U C70G	–	–	–	2.23e-05 ± 6.3e-06 s⁻¹	–	–	–
A6C G29U C34U U47G C58G C70G	0.000135 ± 5e-05 s⁻¹	–	0.000144 ± 3.9e-05 s⁻¹	–	–	–	0.000686 ± 0.0002 s⁻¹
A6C G37U G44U	< 1e-05 s⁻¹	–	–	–	–	–	–
A64G C70U	7.77e-05 ± 7.5e-06 s⁻¹	0.00162 ± 0.00027 s⁻¹	0.00298 ± 0.00027 s⁻¹	0.00369 ± 0.001 s⁻¹	2630 ± 1000 µM	0.000149 ± 2.2e-05 s⁻¹	0.000786 ± 7.7e-05 s⁻¹
G62U C67G C68U	–	–	–	1.17e-05 ± 4.6e-06 s⁻¹	–	–	–
U65A G66A	3.95e-05 ± 1.7e-05 s⁻¹	0.000442 ± 6.9e-05 s⁻¹	0.000577 ± 7.2e-05 s⁻¹	0.00068 ± 8.6e-05 s⁻¹	1640 ± 390 µM	6.05e-05 ± 1.3e-05 s⁻¹	0.000177 ± 2.8e-05 s⁻¹
G62C U69C	< 1e-05 s⁻¹	–	–	< 1e-05 s⁻¹	–	–	< 1e-05 s⁻¹
A6C U46A U49A	< 1e-05 s⁻¹	< 1e-05 s⁻¹	–	–	–	< 1e-05 s⁻¹	< 1e-05 s⁻¹
G66U U69A	–	0.000118 ± 2.1e-05 s⁻¹	0.000191 ± 3.2e-05 s⁻¹	0.000163 ± 3e-05 s⁻¹	–	7.46e-05 ± 3e-05 s⁻¹	8.9e-05 ± 1.5e-05 s⁻¹
A6G C10G G13U C16G U54G U57G	< 1e-05 s⁻¹	–	< 1e-05 s⁻¹	–	–	–	–
G66U C67G	3e-05 ± 7.9e-06 s⁻¹	0.000418 ± 4.7e-05 s⁻¹	0.000687 ± 6.4e-05 s⁻¹	0.000827 ± 0.00015 s⁻¹	2210 ± 730 µM	4.82e-05 ± 7.9e-06 s⁻¹	0.000262 ± 5.1e-05 s⁻¹
A6C G32C	< 1e-05 s⁻¹	< 1e-05 s⁻¹	< 1e-05 s⁻¹	–	–	< 1e-05 s⁻¹	–
A6G C8G A39C U55C C70A	< 1e-05 s⁻¹	–	< 1e-05 s⁻¹	–	–	–	–
A6C C50G C70U	0.000111 ± 3.3e-05 s⁻¹	0.000114 ± 2.7e-05 s⁻¹	0.000121 ± 2.9e-05 s⁻¹	–	–	–	0.000347 ± 0.0001 s⁻¹
A6G C50G A53G C58U	0.000224 ± 9.8e-05 s⁻¹	–	–	–	–	–	–
A6C G37C A39G G40U G41U	< 1e-05 s⁻¹	< 1e-05 s⁻¹	–	–	–	< 1e-05 s⁻¹	< 1e-05 s⁻¹
A6G C10A G13A G62A U65A	< 1e-05 s⁻¹	–	< 1e-05 s⁻¹	–	–	–	–
A6G G32U C34U	< 1e-05 s⁻¹	< 1e-05 s⁻¹	< 1e-05 s⁻¹	–	–	–	< 1e-05 s⁻¹
